Assay results as given in IntAct's records for PubMed 18927509.

B1: Cell cycle serine/threonine-protein kinase CDC5/MSD2 (Saccharomyces cerevisiae), P32562 (parent)
chain: MSLGPLKAINDKQLNTRSKLVHTPIKGNTADLVGKENHFKQTKRLDPNNDHHHQPAQKKKREKLSALCKTPPSLIKTRGKDYHRGHFLGEGGFARCFQIKDDSGEIFAAKTVAKASIKSEKTRKKLLSEIQIHKSMSHPNIVQFIDCFEDDSNVYILLEICPNGSLMELLKRRKVLTEPEVRFFTTQICGAIKYMHSRRVIHRDLKLGNIFFDSNYNLKIGDFGLAAVLANESERKYTICGTPNYIAPEVLMGKHSGHSFEVDIWSLGVMLYALLIGKPPFQARDVNTIYERIKCRDFSFPRDKPISDEGKILIRDILSLDPIERPSLTEIMDYVWFRGTFPPSIPSTVMSEAPNFEDIPEEQSLVNFKDCMEKSLLLESMSSDKIQRQKRDYISSIKSSIDKLEEYHQNRPFLPHSLSPGGTKQKYKEVVDIEAQRRLNDLAREARIRRAQQAVLRKELIATSTNVIKSEISLRILASECHLTLNGIVEAEAQYKMGGLPKSRLPKIKHPMIVTKWVDYSNKHGFSYQLSTEDIGVLFNNGTTVLRLADAEEFWYISYDDREGWVASHYLLSEKPRELSRHLEVVDFFAKYMKANLSRVSTFGREEYHKDDVFLRRYTRYKPFVMFELSDGTFQFNFKDHHKMAISDGGKLVTYISPSHESTTYPLVEVLKYGEIPGYPESNFREKLTLIKEGLKQKSTIVTVD
partner: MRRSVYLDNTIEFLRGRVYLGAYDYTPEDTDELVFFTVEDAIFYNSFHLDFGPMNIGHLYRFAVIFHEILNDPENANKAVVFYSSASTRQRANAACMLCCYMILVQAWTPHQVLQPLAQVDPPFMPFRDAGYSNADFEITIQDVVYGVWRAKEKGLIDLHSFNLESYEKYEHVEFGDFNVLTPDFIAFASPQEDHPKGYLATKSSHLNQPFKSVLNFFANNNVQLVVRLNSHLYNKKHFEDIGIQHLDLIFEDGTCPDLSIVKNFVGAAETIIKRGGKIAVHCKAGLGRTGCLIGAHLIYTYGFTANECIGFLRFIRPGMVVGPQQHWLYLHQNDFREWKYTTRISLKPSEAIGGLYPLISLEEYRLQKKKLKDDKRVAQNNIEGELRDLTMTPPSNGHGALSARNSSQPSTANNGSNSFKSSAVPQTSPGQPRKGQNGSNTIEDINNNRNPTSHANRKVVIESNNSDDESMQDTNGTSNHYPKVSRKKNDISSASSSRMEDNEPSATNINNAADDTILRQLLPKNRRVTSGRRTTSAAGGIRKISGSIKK

Variants of: B1
Settings: with cdc14_yeast CDC14, Q00684

effect of a mutation on the interaction | Variant
decreasing interaction | H641A;K643M
